Two substances from publication doi:10.1101/2023.12.06.570360 can be followed below.

In this test the target is Htz1(T46C)-2xFLAG (yeast histone H2A.Z with a cysteine probe) (S. cerevisiae). In words: cross-linking.

With “Hta1(N39C) (yeast histone H2A with a cysteine probe) (natural protein)”, the percent of bulk H2A.Z in the H2A-to-H2A.Z cross-linked adduct (WT cells) is 57%.

Consider “Htz1(T46C)-2xFLAG (yeast histone H2A.Z with a cysteine probe) (natural protein)”, for which the percent of bulk H2A.Z in the H2A.Z-to-H2A.Z cross-linked adduct (WT cells) worked out at 12%.
